From article PMC4066409 come the findings set out here.

Data set [1] deals with NZF-1-F2F3 H559Q. Put plainly: fluorescence anisotropy. Particulars: not given in the material (ESI). In general terms: Fluorescence polarisation rises when a labelled molecule tumbles more slowly, as on binding a larger partner.
The test system of data set [2] is NZF-1-F2F3 H515Q. Put plainly: fluorescence anisotropy. The note with it: not given in the material (ESI).

On to βRAR DNA, for which the Kd is 3.7 µM in data set [1] and 3 µM in data set [2].

Broadly, the Kd is the constant that tells how readily two partners part at equilibrium. High values mean weaker binding, low ones tighter binding.
